Our source for the protein production values is a protein production outcome set (Wang et al. 2014).

The nature of this data set: label from the status in PepcDB records.

As for “SSTHGSRFPLCGGRRDHKGLTHIFNPPPKRFESILEGLFGPALLKDLSLFKDCEPESISDWTFDENCLFCCLRRDKVKGHLVGLDEPASGAGQEALLKQEQAKIIRFERQAEEFLNAVFYRKDSPWVSDPNIPLVAREIMQRMIQQFAAEYTSKNSSTQDPSQPNSTKNQSLPKASPVTTSPTAATTQNPVLSKLLMADQDSPLDLTVRKSQSEPSEQDGVLDLSTKKSPCAGSTSLSHSPGCSSTQGNGRPGRPSQYRPDGLRSGDGVPPRSLQDGTREGFGHSTSLKVPLARSLQISEELLSRNQLSTAASLGPSGLQNHGQHLILSREASWAKPHYEFNLSRMKFRGNGALSNISDLPFLAENSAFPKMALQAKQDGKKDVSHSSPVDLKIPQVRGMDLSWESRTGDQYSYSSLVMGSQTESALSKKLRAILPKQSRKSMLDAGPDSWGSDAEQSTSGQPYPTSDQEGDPGSKQPRKKRGRYRQYNSEILEEAISVVMSGKMSVSKAQSIYGIPHSTLEYKVKERLGTLKNPPKKKMKLMRSEGPDVSVKIELDPQGEAAQSANESKNE”, the protein production entry is listed as “not failed”. Regarding “SSVVKSIELVLPEDRIYLAGSSIKGQVILTLNSTLVDPIVKVELVGRGYVEWSEEAGASCDYSRNVICNNKADYVHKTKTFPVEDNWLSAGSHTFDFHFNLPPRLPSTFTSKFGHVFYFVQASCMGREHILAKKRMYLLVQGTSTFHKETPFQNPLFVEAEEKVSYNCCRQGTVCLQIQMERNTFTPGEKVVFTTEINNQTSKCIKTVVFALYAHIQYEGFTPSAERRSRLDSSELLRQEANTPVTRFNTTKVVSTFNLPLLLSVSSSTQDGEIMHTRYELVTTVHLPWSLTSLKAKVPIIITSASVDSAICQLSEDGVLPVNPDHQN”, the protein production entry is recorded as “not failed”.

With “STERRRDELSEEINNLREKVMKQSEENNNLQSQVQKLTEENTTLREQVEPTPEDEDDDIELRGAAAAAAPPPPIEEECPEDLPEKFDGNPDMLAPFMAQCQIFMEKSTRDFSVDRVRVCFVTSMMTGRAARWASAKLERSHYLMHNYPAFMMEMKHVFEDPQRREVAKRKIRRLRQGMGSVIDYSNAFQMIAQDLDWNEPALIDQYHEGLSDHIQEELSHLEVAKSLSALIGQCIHIERRLARAAAARKPRSPPRALVLPHIASHHQVDPTEPVGGARMRLTQEEKERRRKLNLCLYCGTGGHYADNCPAKASKSSPAGNSPAPL”, the protein production result was “not failed”. On to “STMSGYLYRSKGSKKPWKHLWFVIKNKVLYTYAASEDVAALESQPLLGFTVTLVKDENSESKVFQLLHKGMVFYVFKADDAHSTQRWIDAFQEGTV”, for which the protein production entry is recorded as “not failed”. Next, “STQVSQATSQPINFQVQKDGSSEKSHMDDYMQHPGKVIKQNNKYYFQTVLNNASFWKEYKFYNANNQELATTVVNDNKKADTRTINVAVEPGYKSLTTKVHIVVPQINYNHRYTTHLEFEKAIPTLADAAK”: “not failed”; “STRFPGVAIYLVEPRMGRSRRAFLTGLARSKGFRVLDACSSEATHVVMEETSAEEAVSWQERRMAAAPPGCTPPALLDISWLTESLGAGQPVPVECRHRLEVAGPRKGPLSPAWMPAYAC”: “not failed”.

Consider “STRRVSVRDKLLVKEVAELEANLPCTCKVHFPDPNKLHCFQLTVTPDEGYYQGGKFQFETEVPDAYNMVPPKVKCLTKIWHPNITETGEICLSLLREHSIDGTGWAPTRTLKDVVWGLNSLFTDLLNFDDPLNIEAAEHHLRDKEDFRNKVDDYIKRYAR”, for which the protein production result is “not failed”.

“SVDVEFQKAVEDILRKNIKQGKQYAGSDLFDRAFVVAMDPYSGEVLALAGQKLNDKGEFDDYSLGTFTTAYAMGSAVKGSTILGGIMDGAISNKTVFTDQPIALKGTKPKSSWFNRTGAGNRPLDPVGALEISSNSYMYQVAMKMGGAKYVPNGPLRAPLSTFDDMRYYYNQFGLGVKTGIDLPGEQVGYKGDDQTIGKILDFAIGQYDSYTPLQMAQYVSTIANGGSRIAPSMVKEIRNPSTNGDSVGTLATANEPKVLNKIGVSDNDIKTVQKGFYEVTHGSTGTARTVFTSSDYDVAGKTGTADAFYDGPKEGNKMASVWNTTFVGYAPVKKPEIAISVVVPWIYRPYGTDQKTNMKISKEVFDKYFELKKERAESNKDASKVEQPINNKEAAAKAQSEQTEN”: the protein production entry is “failed”. Regarding “TAYIIVGLTPKDAEKLQQYGARVASTLAKYSGEVLVKGSVEQLHGKFEHKAQVILEFPSREDAYNWYHSEEYQALISTRDLGMDSQFQLIG”, the protein production result is on record as “not failed”. Take “TEDTFWKDETDFNLALTSCYTPLKNALNGGYYGTRGVMLRIARADEVDFRNDISDVYTVNRFTNSNTNSLTQGMFYQFYNALYRTNSIMQKLEEKKEQFSTDFQNSVKGECLFIRGFYLFQLAKEFKDAPLRLTASQSPSTFPLAKSSQADIWAQAKEDLKTAASLLPITNKIGKPTQGAAYAALGKIYVYEENWQEAINVLEPLTQNPYTYKLVEDFNWNFDDTHENNAESIFELLIEDVGGTDLWGDGENINSTQSNTRPKEYAAAEVGGWYEANPTQQIMDIFWKEKDKDGNFDYRARCSVAWDYEGCTYYQRPFREVFAQDKWKTYWILKYQNWKTQKDEPAPPKSFINERAIRYADVLLMLAEAYMNKGALDTSIGYINQIRRRANLNDYSGPITKEGVFEDLVHQRAIEFFVEGERFYDLRRWGLLEQTLKTCDDTRYKNYQTGKSDNINKFNYFPIPAKELDTNPLCTPSEGW”: the protein production result is reported as “not failed”.

On to “TEERLKEIEAKYDEIAKDWPKKVKHVLHEEHELELTRVQVYTCDKCEEEGTIWSYHCDECDFDLHAKCALNEDTKE”, for which the protein production entry was “not failed”.

Regarding “TEQGLQKVLQRLVQTMQRDALVRQTTNQLRESLQVDRVVLYYFYWQWHGQVTFEALSSEEFSILGSTGADECFNDEYAALYLAGRTKAIADIESEPITTCHRDFLRTLQVRANLVVPVLVPKGLWGLLVAHHCQGTHDWKESDIELMQAGAKTLA”, the protein production result is reported as “failed”.

As to “TFEEDDNMERAAVTGIAFDKNQARINVRGVPDKPGVAYQILGAVADANIEVDMIIQNVGSEGTTDFSFTVPRGDYKQTLEILSERQDSIGAASIDGDDTVCKVSAVGLGMRSHVGVAAKIFRTLAEEGINIQMISTSEIKVSVLIDEKYMELATRVLHKAFNLG”, the protein production entry is “not failed”. The entry for “TFGEKLLNAASTRGRLCVGIDPHESLLTSWGLPVNVDGLAEFSRACVEAFADTVALVKPQVAFYERFGSAGFAILEETIQTLRERGCLVVSDAKRGDIGSTMAGYASAWLDPASPLSSDAVTVSPYLGFHSLDPVFELAEQHGRGVFVLAATSNPEARELQDQQNADGVSISQQIVDQAAALNAPYMAQGKAGNIGVVIGATLSKPPRLSTLGGAILMPGVGAQGGTASDVDEIAGDMAHLAFPNVSRSILATGPDIAEMKNSVAKNAADFPGFP” is “not failed”. Next, “TGQGWMLNLRREKFQDPKVREALNLMFNFEWSNQTLFYGLYTRVDSFWENSYLEAEGAPSEAEAALLKPLVDEGLLPASILTEPPVSPPVSGERQLDRRNLRAASKLLDEAGWTVGSDGMRRNAKGEVLRVEFLNDSQTFDRVISPFVENLRALGVDALMTRVDNAQMESRTRPPSYDFDITTGNARTNYISGAELKQYYGSETADISAFNIMGLKDKAVDRMIEVVLAAKTSEELEVATKALDRVLRLQRFWVPQWYKA”: “failed”; “THVVCSDSGLEVLYQSCDPLQDFGFSVEKCSKQLKSNINIRFGIILREDIKELFLDLALMSQGSSVLNFSYPICEAALPKFSFCGRRKGEQIYYAGPVNNPEFTIPQGEYQVLLELYTEKRSTVACANATIMCS”: “not failed”. Next, “TIAFIVNKNLLHGSEIPKSWADLKTGKYKVSIGDVSTAAQAANGVLAASFAMKGDESNIEPGLALFTDLAKQKRLSLANPTIQTIEKGEIEVGVVWDFNGLSYRTKMAKPDDYVVLIPSDGSVISGYTTIINKYAKHPNAAKLAREYTFSDAGQ”: “failed”; “TIDLRMQQYAEEAMVKQMKEVLQPIFDKEKRGRSYAPFSRDITSDEQRSILLRAMKQTDRWREMKKAGISESEIRASFNKKRKMQVWNWRGTIDTVMSPLDSIKYLKGILRTGFMAMNPHNGHIKAYVGGINFRNFQYDMVSQGRRQVGSTIKPFLYSLSMLEGISPCDEMLHVSQTLFTESGKAWTPKNTGARRTGEMVSIKWGLQNSSNWVTAYLMGRTSPYTFVRLLRSYGLSGYLEPSLSICLGTPDVSVQEMVSAYTTFVNKGIRVNPLPITRIEDQYGNVVAQFSPNMVEVLPPDAAYKMLYMLKSVVDGGTGSRLRYRYGFKLDMGGKTGTTQNNSDGWFVGFTPSLVAGCWVGGEDRSVHFDSMSNGQGAASALPIFAEFLKRVYADPKLGYTTE”: “failed”.
